T1: UVR8^12-381 (UVR8 β-propeller core) (Arabidopsis, UniProt Q9FN03 12-381)
T1 sequence: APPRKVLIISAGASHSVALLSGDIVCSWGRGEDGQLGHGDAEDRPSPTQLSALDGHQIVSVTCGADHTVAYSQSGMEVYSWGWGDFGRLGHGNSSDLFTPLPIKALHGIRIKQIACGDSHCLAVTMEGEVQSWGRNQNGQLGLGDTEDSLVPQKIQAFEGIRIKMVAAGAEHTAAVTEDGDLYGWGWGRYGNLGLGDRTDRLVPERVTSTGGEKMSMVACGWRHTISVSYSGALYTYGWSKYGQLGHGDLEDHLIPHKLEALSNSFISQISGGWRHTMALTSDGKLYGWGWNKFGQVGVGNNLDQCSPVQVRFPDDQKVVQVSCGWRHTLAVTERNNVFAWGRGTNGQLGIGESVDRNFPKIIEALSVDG

T2: full-length UVR8 (Arabidopsis, UniProt Q9FN03 1-440)
T2 sequence: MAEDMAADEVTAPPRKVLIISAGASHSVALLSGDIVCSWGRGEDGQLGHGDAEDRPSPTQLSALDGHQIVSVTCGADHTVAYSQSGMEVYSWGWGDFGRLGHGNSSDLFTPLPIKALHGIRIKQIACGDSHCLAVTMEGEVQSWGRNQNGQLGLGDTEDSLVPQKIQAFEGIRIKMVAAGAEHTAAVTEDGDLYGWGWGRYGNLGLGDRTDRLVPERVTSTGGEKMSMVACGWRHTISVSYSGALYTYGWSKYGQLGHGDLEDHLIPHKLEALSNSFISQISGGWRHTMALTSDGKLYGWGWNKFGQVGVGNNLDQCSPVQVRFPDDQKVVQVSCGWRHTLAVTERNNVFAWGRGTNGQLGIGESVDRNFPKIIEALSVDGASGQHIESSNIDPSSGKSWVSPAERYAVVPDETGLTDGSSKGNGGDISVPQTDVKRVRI

B1: recombinant light-activated full-length CRY2 (natural protein)
chain: MKMDKKTIVWFRRDLRIEDNPALAAAAHEGSVFPVFIWCPEEEGQFYPGRASRWWMKQSLAHLSQSLKALGSDLTLIKTHNTISAILDCIRVTGATKVVFNHLYDPVSLVRDHTVKEKLVERGISVQSYNGDLLYEPWEIYCEKGKPFTSFNSYWKKCLDMSIESVMLPPPWRLMPITAAAEAIWACSIEELGLENEAEKPSNALLTRAWSPGWSNADKLLNEFIEKQLIDYAKNSKKVVGNSTSLLSPYLHFGEISVRHVFQCARMKQIIWARDKNSEGEESADLFLRGIGLREYSRYICFNFPFTHEQSLLSHLRFFPWDADVDKFKAWRQGRTGYPLVDAGMRELWATGWMHNRIRVIVSSFAVKFLLLPWKWGMKYFWDTLLDADLECDILGWQYISGSIPDGHELDRLDNPALQGAKYDPEGEYIRQWLPELARLPTEWIHHPWDAPLTVLKASGVELGTNYAKPIVDIDTARELLAKAISRTREAQIMIGAAPDEIVADSFEALGANTIKEPGLCPSVSSNDQQVPSAVRYNGSKRVKPEEEEERDMKKSRGFDERELFSTAESSSSSSVFFVSQSCSLASEGKNLEGIQDSSDQITTSLGKNGCK
B2: CRY2^NC80 (CRY2^486-565) (domain or fragment)
chain: SRTREAQIMIGAAPDEIVADSFEALGANTIKEPGLCPSVSSNDQQVPSAVRYNGSKRVKPEEEEERDMKKSRGFDERELF
B3: Arabidopsis COP1^349-675 WD40 domain (domain or fragment)
chain: TFTRYSRLRVIAEIRHGDIFHSANIVSSIEFDRDDELFATAGVSRCIKVFDFSSVVNEPADMQCPIVEMSTRSKLSCLSWNKHEKNHIASSDYEGIVTVWDVTTRQSLMEYEEHEKRAWSVDFSRTEPSMLVSGSDDCKVKVWCTRQEASVINIDMKANICCVKYNPGSSNYIAVGSADHHIHYYDLRNISQPLHVFSGHKKAVSYVKFLSNNELASASTDSTLRLWDVKDNLPVRTFRGHTNEKNFVGLTVNSEYLACGSETNEVYVYHKEITRPVTSHRFGSPDMDDAEEEAGSYFISAVCWKSDSPTMLTANSQGTIKVLVLAA
B4: COP1^(349-675, Lys422Ala) WD40 domain (domain or fragment)
chain: B3 chain with K74A
B5: full-length HY5 protein (natural protein)
chain: MQEQATSSLAASSLPSSSERSSSSAPHLEIKEGIESDEEIRRVPEFGGEAVGKETSGRESGSATGQERTQATVGESQRKRGRTPAEKENKRLKRLLRNRVSAQQARERKKAYLSELENRVKDLENKNSELEERLSTLQNENQMLRHILKNTTGNKRGGGGGSNADASL

For assay [1], the target named is UVR8^HY5C44 chimera (recombinant) (Arabidopsis | not stated). Kind of assay: SEC. In general terms: Size exclusion chromatography separates by hydrodynamic size, large species first.
Assay [2] has as its target B4. Kind of assay: ITC. A general note: ITC needs no label: the signal is the heat of the interaction.
Assay [3] deals with B3. Description: ITC.
Assay [4] has as its target B3. Kind of assay: grating-coupled interferometry.
In assay [5] the target is B3. Description: crystal structure.
The target of assay [6] is T1, UVR8^12-381 (UVR8 β-propeller core). Kind of assay: grating-coupled interferometry.
For a further assay, the target named is T2, full-length UVR8. Description: grating-coupled interferometry.
The target in assay [7] is B1. Kind of assay: grating-coupled interferometry.
For assay [8], the target named is B4. Description: crystal structure.

From article doi:10.1101/568618 (bioRxiv, 2019) come the findings set out here.

Substitutions are numbered along the chain they refer to.

Consider UVR8^HY5C44 chimera (recombinant), for which the stoichiometry N (as a rule, a count of units in the complex or per binding partner) in [1] amounted to 2.

Regarding GYGIVPSF [CO^366-373 VP-peptide], the “fold stronger binding than to wild-type COP1” value in [2] is approximately 4 fold. Also, in assay [3], the binding result is on record as “binds”.

As for B1, the “fold increase in affinity over the isolated CRY2 VP-peptide” value in [4] is approximately 200 fold.

EDQMVPSIT [CRY1^544-552 VP-peptide]: the binding result in assay [5] and in assay [2] was “binds” each time.

For B2, in assay [4], the binding result is “binds”.

On to B3, for which the Kd – broadly, the free concentration of one partner at which half of the binding sites on the other are occupied at equilibrium, for simple one-to-one binding – is approximately 500 nM in assay [6] and approximately 1000 nM with full-length UVR8. Besides, the binding result in [7] is given as “binds”.

In the case of B4, in the assay with full-length UVR8, the binding result was “binds”.

Consider GFGVVPSF [COL3^287-294 VP-peptide], for which the binding result in assay [5] and in assay [2] was “binds” in each case.

In the case of EIRRVPEFGG [HY5^39-48 VP-peptide], the binding result in assay [8] was “binds”. Moreover, in [3], the Kd is approximately 20000 nM and the “fold stronger binding than UVR8^406-413” value is approximately 8 fold.

For ELLMVPDM [HYH^27-34 VP-peptide], in assay [5], the binding result is “binds”.

As to YLQIVPEI [HFR1^57-64 VP-peptide], the binding result in assay [5] is on record as “binds”.

On to B5, for which, in [4], the Kd was approximately 1000 nM.

For the molecule EHFIVPDL [STO^240-247 VP-peptide], the binding result in assay [5] is listed as “binds”.

On to NDQQVPSAV [CRY2^527-535 VP-peptide], for which the “fold reduced binding against wild-type COP1” value in assay [2] is approximately 30 fold. The binding result in [3] was “binds”.

As for RYAVVPDE [UVR8^406-413 VP-peptide], the “fold increase in affinity over wild-type COP1” value in assay [2] was approximately 10 fold. For the same molecule, the binding result in assay [3] is reported as “binds”.
